Source: the supplement of paper PMC7125110
± gives the standard error. For some of these results: Fewer inactive variants are shown than the library holds.

B1: glmS ribozyme (parent)
chain: AUAAAAGCGCCAGAACUACAGAAAUGUAGUUGACGAGGAGGAGGUUUAUCGAAUUUUCGGCGGAUGCCUCCAAA

How the values were obtained:
Settings in all cases: with glucosamine-6-phosphate
glucosamine-6-phosphate [1] = variants of: B1; experiment: kcat; higher = faster cleavage; RNA array
Summary of the method: (§1)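 Tracking of barcoded ribozyme variants used a hybridised Cy3 probe at 37 °C, after in situ transcription by E. coli RNA polymerase on sequenced MiSeq chips. The flowed solution held 40 μM to 10 mM glucosamine-6-phosphate in HEPES/KCl/Mg(OAc)2 buffer, and imaging ran over ~14 h. kobs was taken from exponential decay fits of normalised per-tile medians, and kcat and KM from weighted Michaelis–Menten fits.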

glucosamine-6-phosphate [2] = variants of: B1; experiment: self-cleavage kobs at 40 uM GlcN6P; higher = faster cleavage; RNA array
Summary of the method: as §1

glucosamine-6-phosphate [3] = variants of: B1; experiment: self-cleavage kobs at 160 uM GlcN6P; higher = faster cleavage; RNA array
Summary of the method: as §1

glucosamine-6-phosphate [4] = variants of: B1; experiment: self-cleavage kobs at 640 uM GlcN6P; higher = faster cleavage; RNA array
Summary of the method: as §1

glucosamine-6-phosphate [5] = variants of: B1; experiment: KM; higher = weaker cofactor use; RNA array
Summary of the method: as §1

glucosamine-6-phosphate [6] = variants of: B1; experiment: self-cleavage kobs at 2500 uM GlcN6P; higher = faster cleavage; RNA array
Summary of the method: as §1

glucosamine-6-phosphate [7] = variants of: B1; experiment: self-cleavage kobs at 10000 uM GlcN6P; higher = faster cleavage; RNA array
Summary of the method: as §1

Variant: U56G G59C
- kcat (glucosamine-6-phosphate [1]): < 1e-05 s⁻¹
- self-cleavage kobs at 40 uM GlcN6P (glucosamine-6-phosphate [2]): < 1e-05 s⁻¹
- self-cleavage kobs at 160 uM GlcN6P (glucosamine-6-phosphate [3]): < 1e-05 s⁻¹
- self-cleavage kobs at 640 uM GlcN6P (glucosamine-6-phosphate [4]): < 1e-05 s⁻¹

Variant: A6G A14G
- kcat (glucosamine-6-phosphate [1]): 0.00132 ± 0.00026 s⁻¹
- KM (glucosamine-6-phosphate [5]): 3740 ± 1200 µM
- self-cleavage kobs at 160 uM GlcN6P (glucosamine-6-phosphate [3]): 7.41e-05 ± 1.7e-05 s⁻¹
- self-cleavage kobs at 640 uM GlcN6P (glucosamine-6-phosphate [4]): 0.000162 ± 4.1e-05 s⁻¹
- self-cleavage kobs at 2500 uM GlcN6P (glucosamine-6-phosphate [6]): 0.000514 ± 7.9e-05 s⁻¹
- self-cleavage kobs at 10000 uM GlcN6P (glucosamine-6-phosphate [7]): 0.000992 ± 0.00016 s⁻¹

Variant: A15C U57G
- kcat (glucosamine-6-phosphate [1]): 2.37e-05 ± 5.5e-06 s⁻¹
- self-cleavage kobs at 40 uM GlcN6P (glucosamine-6-phosphate [2]): < 1e-05 s⁻¹
- self-cleavage kobs at 160 uM GlcN6P (glucosamine-6-phosphate [3]): < 1e-05 s⁻¹

Variant: C16U U47A
- kcat (glucosamine-6-phosphate [1]): 0.0299 ± 0.0051 s⁻¹
- KM (glucosamine-6-phosphate [5]): 3060 ± 660 µM
- self-cleavage kobs at 40 uM GlcN6P (glucosamine-6-phosphate [2]): 0.0004 ± 7.1e-05 s⁻¹
- self-cleavage kobs at 640 uM GlcN6P (glucosamine-6-phosphate [4]): 0.00515 ± 0.00087 s⁻¹
- self-cleavage kobs at 2500 uM GlcN6P (glucosamine-6-phosphate [6]): 0.0118 ± 0.003 s⁻¹
- self-cleavage kobs at 10000 uM GlcN6P (glucosamine-6-phosphate [7]): 0.0259 ± 0.0068 s⁻¹

Variant: U47G C58U
- kcat (glucosamine-6-phosphate [1]): 8.14e-05 ± 1.6e-05 s⁻¹
- self-cleavage kobs at 2500 uM GlcN6P (glucosamine-6-phosphate [6]): 3.07e-05 ± 1.2e-05 s⁻¹
- self-cleavage kobs at 10000 uM GlcN6P (glucosamine-6-phosphate [7]): 6.32e-05 ± 8.6e-06 s⁻¹

Variant: G29C U45C
- kcat (glucosamine-6-phosphate [1]): 0.000137 ± 2.1e-05 s⁻¹
- KM (glucosamine-6-phosphate [5]): 2120 ± 930 µM
- self-cleavage kobs at 2500 uM GlcN6P (glucosamine-6-phosphate [6]): 9.03e-05 ± 2e-05 s⁻¹
- self-cleavage kobs at 10000 uM GlcN6P (glucosamine-6-phosphate [7]): 0.000108 ± 1.8e-05 s⁻¹

Variant: U46A U65C
- kcat (glucosamine-6-phosphate [1]): 0.000937 ± 0.00023 s⁻¹
- KM (glucosamine-6-phosphate [5]): 2440 ± 1100 µM
- self-cleavage kobs at 160 uM GlcN6P (glucosamine-6-phosphate [3]): 4.37e-05 ± 1.8e-05 s⁻¹
- self-cleavage kobs at 640 uM GlcN6P (glucosamine-6-phosphate [4]): 0.00029 ± 6.2e-05 s⁻¹
- self-cleavage kobs at 2500 uM GlcN6P (glucosamine-6-phosphate [6]): 0.000426 ± 8.2e-05 s⁻¹
- self-cleavage kobs at 10000 uM GlcN6P (glucosamine-6-phosphate [7]): 0.000782 ± 0.00014 s⁻¹

Variant: C67A C70U
- kcat (glucosamine-6-phosphate [1]): 0.00153 ± 0.00062 s⁻¹
- self-cleavage kobs at 40 uM GlcN6P (glucosamine-6-phosphate [2]): 9.1e-05 ± 9.4e-06 s⁻¹
- self-cleavage kobs at 160 uM GlcN6P (glucosamine-6-phosphate [3]): 0.000211 ± 3.6e-05 s⁻¹
- self-cleavage kobs at 640 uM GlcN6P (glucosamine-6-phosphate [4]): 0.000461 ± 6.6e-05 s⁻¹
- self-cleavage kobs at 2500 uM GlcN6P (glucosamine-6-phosphate [6]): 0.00129 ± 0.00019 s⁻¹
- self-cleavage kobs at 10000 uM GlcN6P (glucosamine-6-phosphate [7]): 0.00206 ± 0.00033 s⁻¹

Variant: U45A A48C
- kcat (glucosamine-6-phosphate [1]): 0.000559 ± 7.1e-05 s⁻¹
- KM (glucosamine-6-phosphate [5]): 2130 ± 560 µM
- self-cleavage kobs at 640 uM GlcN6P (glucosamine-6-phosphate [4]): 0.000131 ± 2.3e-05 s⁻¹
- self-cleavage kobs at 2500 uM GlcN6P (glucosamine-6-phosphate [6]): 0.000382 ± 8.1e-05 s⁻¹
- self-cleavage kobs at 10000 uM GlcN6P (glucosamine-6-phosphate [7]): 0.000445 ± 5.6e-05 s⁻¹

Variant: C16G G41U
- kcat (glucosamine-6-phosphate [1]): 0.000139 ± 1.4e-05 s⁻¹
- KM (glucosamine-6-phosphate [5]): 2720 ± 780 µM
- self-cleavage kobs at 2500 uM GlcN6P (glucosamine-6-phosphate [6]): 7.39e-05 ± 1.7e-05 s⁻¹
- self-cleavage kobs at 10000 uM GlcN6P (glucosamine-6-phosphate [7]): 0.000107 ± 1.5e-05 s⁻¹

Variant: U47C C68G
- kcat (glucosamine-6-phosphate [1]): 6.88e-05 ± 2.3e-06 s⁻¹
- KM (glucosamine-6-phosphate [5]): 573 ± 80 µM
- self-cleavage kobs at 640 uM GlcN6P (glucosamine-6-phosphate [4]): 3.62e-05 ± 7.3e-06 s⁻¹
- self-cleavage kobs at 2500 uM GlcN6P (glucosamine-6-phosphate [6]): 5.33e-05 ± 1.1e-05 s⁻¹
- self-cleavage kobs at 10000 uM GlcN6P (glucosamine-6-phosphate [7]): 6.6e-05 ± 7.8e-06 s⁻¹

Variant: U46G U54A
- kcat (glucosamine-6-phosphate [1]): 0.00945 ± 0.0015 s⁻¹
- KM (glucosamine-6-phosphate [5]): 2450 ± 490 µM
- self-cleavage kobs at 40 uM GlcN6P (glucosamine-6-phosphate [2]): 0.000165 ± 2.1e-05 s⁻¹
- self-cleavage kobs at 160 uM GlcN6P (glucosamine-6-phosphate [3]): 0.000444 ± 0.00011 s⁻¹
- self-cleavage kobs at 640 uM GlcN6P (glucosamine-6-phosphate [4]): 0.00207 ± 0.00034 s⁻¹
- self-cleavage kobs at 2500 uM GlcN6P (glucosamine-6-phosphate [6]): 0.00434 ± 0.0016 s⁻¹
- self-cleavage kobs at 10000 uM GlcN6P (glucosamine-6-phosphate [7]): 0.00766 ± 0.0012 s⁻¹

Variant: U31A U65G
- kcat (glucosamine-6-phosphate [1]): 0.00228 ± 0.00054 s⁻¹
- KM (glucosamine-6-phosphate [5]): 2390 ± 1000 µM
- self-cleavage kobs at 40 uM GlcN6P (glucosamine-6-phosphate [2]): 3.37e-05 ± 1.5e-05 s⁻¹
- self-cleavage kobs at 160 uM GlcN6P (glucosamine-6-phosphate [3]): 0.000211 ± 6.2e-05 s⁻¹
- self-cleavage kobs at 640 uM GlcN6P (glucosamine-6-phosphate [4]): 0.000521 ± 8.8e-05 s⁻¹
- self-cleavage kobs at 2500 uM GlcN6P (glucosamine-6-phosphate [6]): 0.000854 ± 0.00019 s⁻¹
- self-cleavage kobs at 10000 uM GlcN6P (glucosamine-6-phosphate [7]): 0.00205 ± 0.00027 s⁻¹

Variant: C16U G66C C67U
- kcat (glucosamine-6-phosphate [1]): 3.45e-05 ± 4.4e-06 s⁻¹

Variant: G7A A36U A39C C68A C71G
- kcat (glucosamine-6-phosphate [1]): 1e-05 ± 4e-06 s⁻¹

Variant: C10U A14U
- kcat (glucosamine-6-phosphate [1]): < 1e-05 s⁻¹
- self-cleavage kobs at 40 uM GlcN6P (glucosamine-6-phosphate [2]): < 1e-05 s⁻¹

Variant: U31C G38U
- kcat (glucosamine-6-phosphate [1]): < 1e-05 s⁻¹
- self-cleavage kobs at 40 uM GlcN6P (glucosamine-6-phosphate [2]): < 1e-05 s⁻¹
- self-cleavage kobs at 10000 uM GlcN6P (glucosamine-6-phosphate [7]): < 1e-05 s⁻¹
